Results from PMC5940202, “A novel α-galactosidase from the thermophilic probiotic Bacillus coagulans with remarkable protease-resistance and high hydrolytic activity” (PLoS ONE, 2018).
Values belong to the molecule of their own block, whether it stands above or below them.

Tests used:
[1] = target: α-galactosidase Aga-BC7050 from Bacillus coagulans ATCC 7050 (Bacillus coagulans ATCC 7050); assay: SEC; analytical gel filtration, Superdex 200 Increase 10/300 GL, 10 mM phosphate buffer, 0.14 M NaCl, pH 7.4, 0.75 mL/min, room temperature; calibrated with albumin, lactate dehydrogenase, catalase, ferritin, thyroglobulin; native mass compared with SDS-PAGE mass
[2] = target: T1, Aga-BC7050 (Heyndrickxia coagulans, UniProt A0A8B4BWV9); assay: pNPGal hydrolysis with added sugar; assay type: biochemical; settings: substrate pNPGal; McIlvaine buffer; galactose is also the reaction product
T1 construct: GH36 homodimer, 168 kDa by gel filtration; predicted nucleophile Asp477, acid/base Asp547
T1 sequence (A0A8B4BWV9 1-730): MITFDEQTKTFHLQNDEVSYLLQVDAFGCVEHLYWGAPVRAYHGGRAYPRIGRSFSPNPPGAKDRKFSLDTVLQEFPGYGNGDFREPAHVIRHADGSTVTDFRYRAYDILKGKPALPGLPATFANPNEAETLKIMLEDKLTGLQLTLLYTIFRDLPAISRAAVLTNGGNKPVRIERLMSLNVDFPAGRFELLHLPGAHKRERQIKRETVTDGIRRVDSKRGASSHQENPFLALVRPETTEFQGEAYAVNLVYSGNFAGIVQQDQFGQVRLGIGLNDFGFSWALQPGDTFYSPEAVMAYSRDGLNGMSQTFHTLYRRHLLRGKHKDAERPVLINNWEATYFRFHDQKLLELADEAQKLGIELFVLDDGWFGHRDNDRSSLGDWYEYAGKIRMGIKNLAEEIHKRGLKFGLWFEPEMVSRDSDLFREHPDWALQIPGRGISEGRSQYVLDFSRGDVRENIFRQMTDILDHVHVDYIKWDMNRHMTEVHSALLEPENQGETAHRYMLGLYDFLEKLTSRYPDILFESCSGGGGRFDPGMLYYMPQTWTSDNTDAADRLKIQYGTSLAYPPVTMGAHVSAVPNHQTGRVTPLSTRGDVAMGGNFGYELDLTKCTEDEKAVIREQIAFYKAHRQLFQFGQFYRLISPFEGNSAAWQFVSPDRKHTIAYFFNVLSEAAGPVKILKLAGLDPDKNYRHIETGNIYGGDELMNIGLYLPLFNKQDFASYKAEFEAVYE

[3] = substrate: O=[N+]([O-])c1ccc(O[C@H]2O[C@H](CO)[C@H](O)[C@H](O)[C@H]2O)cc1; assay: purified protein; assay type: biochemical, Heyndrickxia coagulans; settings: McIlvaine buffer pH 6.0, 55 °C
[4] = substrate: OC[C@H]1O[C@H](OC[C@H]2O[C@H](O[C@]3(CO)O[C@H](CO)[C@@H](O)[C@@H]3O)[C@H](O)[C@@H](O)[C@@H]2O)[C@H](O)[C@@H](O)[C@H]1O; assay: purified protein; assay type: biochemical, Heyndrickxia coagulans; settings: McIlvaine buffer pH 6.0, 55 °C

stoichiometry N [1]: 2
Molecule: α-galactosidase Aga-BC7050 from Bacillus coagulans ATCC 7050 (enzyme)

% decrease of activity at 100 mM [2]: 24.4%
Molecule: OC[C@H]1OC(O)[C@H](O)[C@@H](O)[C@H]1O (stereo partly shown) [galactose]

B1: Aga-BC7050 (Heyndrickxia coagulans DSM 1 = ATCC 7050) (protein)
chain: MITFDEQTKTFHLQNDEVSYLLQVDAFGCVEHLYWGAPVRAYHGGRAYPRIGRSFSPNPPGAKDRKFSLDTVLQEFPGYGNGDFREPAHVIRHADGSTVTDFRYRAYDILKGKPALPGLPATFANPNEAETLKIMLEDKLTGLQLTLLYTIFRDLPAISRAAVLTNGGNKPVRIERLMSLNVDFPAGRFELLHLPGAHKRERQIKRETVTDGIRRVDSKRGASSHQENPFLALVRPETTEFQGEAYAVNLVYSGNFAGIVQQDQFGQVRLGIGLNDFGFSWALQPGDTFYSPEAVMAYSRDGLNGMSQTFHTLYRRHLLRGKHKDAERPVLINNWEATYFRFHDQKLLELADEAQKLGIELFVLDDGWFGHRDNDRSSLGDWYEYAGKIRMGIKNLAEEIHKRGLKFGLWFEPEMVSRDSDLFREHPDWALQIPGRGISEGRSQYVLDFSRGDVRENIFRQMTDILDHVHVDYIKWDMNRHMTEVHSALLEPENQGETAHRYMLGLYDFLEKLTSRYPDILFESCSGGGGRFDPGMLYYMPQTWTSDNTDAADRLKIQYGTSLAYPPVTMGAHVSAVPNHQTGRVTPLSTRGDVAMGGNFGYELDLTKCTEDEKAVIREQIAFYKAHRQLFQFGQFYRLISPFEGNSAAWQFVSPDRKHTIAYFFNVLSEAAGPVKILKLAGLDPDKNYRHIETGNIYGGDELMNIGLYLPLFNKQDFASYKAEFEAVYE
notes: GH36 homodimer, 168 kDa by gel filtration; predicted nucleophile Asp477, acid/base Asp547
Km [3]: 1.1 ± 0.2 mM
Vmax [3]: 655 µmol/min/mg
kcat [3]: 942 ± 73.9 s⁻¹
kcat/Km [3]: 844000 M⁻¹ s⁻¹
Km [4]: 53.7 ± 0.9 mM
Vmax [4]: 1140 µmol/min/mg
kcat [4]: 1610 ± 53.4 s⁻¹
kcat/Km [4]: 30500 M⁻¹ s⁻¹
